Assay results taken from patent US20230416329A1 (INSTITUTE OF MATERIA MEDICA CHINESE ACADEMY OF MEDICAL …, published 2023).
One block for each binder: values may come before it. Bridge positions count the residues as written; N and C are the ends. Ends that are not written are not given here.

How the values were obtained:
bovine trypsin [1] = target: T1, bovine trypsin (bovine, UniProt P00760 24-246); assay: trypsin (50 nM) BApNA hydrolysis, OD405; peptide at 0.98 µM
Protocol: (§1) The substrates N-succinyl-Ala-Ala-Pro-Phe-p-nitroaniline (AAPFpNA), Nα—Benzoyl-L-arginine-4-nitroaniline hydrochloride (BApNA) and N-succinyl-[…] (AAApNA) are used in competitive binding reaction to determine the inhibitory activities against α-chymotrypsin, bovine trypsin, and porcine pancreatic elastase, respectively. Experiments for α-chymotrypsin and bovine trypsin inhibition were measured in 20 mM CaCl₂, 50 mM Tris-HCl buffer (pH 7.8), and that for porcine elastase inhibition was measured in 50 mM Tris-HCl buffer (pH 8.0). The concentration of the peptide was measured using optical density (OD) at 280 nm. The Michaelis constant (Kₘ) of the enzyme hydrolysis substrate is calculated from the initial rate of substrate hydrolysis at 405 nm. The absorbance value of the substrate was measured at 405 nm after complete hydrolysis. All data were processed using nonlinear regression.
(§2) (1) Added a total 190 μL of reaction buffer (20 mM CaCl₂ and 50 mM Tris-HCl, pH 7.8) along with different concentrations of anti-trypsin peptides (BTs) into the pre-cooled 96-well plate, followed by preheating at 37° C., and spined down at 500 rpm for 5 min. Next added 10 μL of 1 μM trypsin, incubated at 37° C., and then spined down at 500 rpm for 10 min. Finally, added 5 μL of 50 mM BApNA, and mixed by centrifugation at 500 rpm for 1 min. […] The experiment was performed in triplicate. The blank control only contained the reaction buffer and the substrate as the minimum absorption value (Min OD_{405 nm}). The negative control only contained the reaction buffer, the enzyme and the substrate as the maximum absorption value (Max OD_{405 nm}). […] (2) In the reaction system of 205 μL, the final concentrations of trypsin and BApNA were 50 nM and 1.22 mM, respectively. [0456] (3) Data statistics

bovine trypsin [2] = target: T1, bovine trypsin; assay: as above; remark: listed apart in the source
bovine trypsin [3] = target: T1, bovine trypsin; assay: trypsin (50 nM) BApNA hydrolysis, OD405; peptide at 0.0098 µM
Protocol: as §1, §2

bovine trypsin [4] = target: T1, bovine trypsin; assay: trypsin (50 nM) BApNA hydrolysis, OD405; peptide at 0.0488 µM
Protocol: as §1, §2

bovine trypsin [5] = target: T1, bovine trypsin; assay: trypsin (50 nM) BApNA hydrolysis, OD405; peptide at 0.0098 µM; remark: listed apart in the source
bovine trypsin [6] = target: T1, bovine trypsin; assay: trypsin (50 nM) BApNA hydrolysis, OD405; peptide at 0.0488 µM; remark: listed apart in the source
bovine trypsin [7] = target: T1, bovine trypsin; assay: trypsin (50 nM) BApNA hydrolysis, OD405; peptide at 0.00098 µM
bovine trypsin [8] = target: T1, bovine trypsin; assay: as above; remark: listed apart in the source
bovine trypsin [9] = target: T1, bovine trypsin; assay: trypsin (50 nM) BApNA hydrolysis, OD405; peptide at 9.76 µM
bovine trypsin [10] = target: T1, bovine trypsin; assay: trypsin (50 nM) BApNA hydrolysis, OD405; peptide at 0.098 µM
bovine trypsin [11] = target: T1, bovine trypsin; assay: trypsin (50 nM) BApNA hydrolysis, OD405; peptide at 9.76 µM; remark: listed apart in the source
Protocol: as §1, §2

bovine trypsin [12] = target: T1, bovine trypsin; assay: trypsin (50 nM) BApNA hydrolysis, OD405; peptide at 0.098 µM; remark: listed apart in the source
Protocol: as §1, §2

bovine trypsin [13] = target: T1, bovine trypsin; assay: trypsin (50 nM) BApNA hydrolysis, OD405; peptide at 97.56 µM
Protocol: as §1, §2

bovine trypsin [14] = target: T1, bovine trypsin; assay: trypsin (50 nM) BApNA hydrolysis, OD405; peptide at 0.0780 µM
Protocol: as §1
(1) Added a total 190 μL of reaction buffer (20 mM CaCl₂ and 50 mM Tris-HCl, pH 7.8) along with different concentrations of anti-trypsin peptides (BTs) into the pre-cooled 96-well plate, followed by preheating at 37° C., and spined down at 500 rpm for 5 min. Next added 10 μL of 1 μM trypsin, incubated at 37° C., and then spined down at 500 rpm for 10 min. Finally, added 5 μL of 50 mM BApNA, and mixed by centrifugation at 500 rpm for 1 min. […] The experiment was performed in triplicate. […]

bovine trypsin [15] = target: T1, bovine trypsin; assay: trypsin (50 nM) BApNA hydrolysis, OD405; peptide at 0.000098 µM
Protocol: as §1, §2

[16] = target: porcine pancreatic elastase (porcine, UniProt P00772 27-266); assay: elastase inhibition, AAApNA substrate
porcine pancreatic elastase, sequence (P00772 27-266 limits assumed): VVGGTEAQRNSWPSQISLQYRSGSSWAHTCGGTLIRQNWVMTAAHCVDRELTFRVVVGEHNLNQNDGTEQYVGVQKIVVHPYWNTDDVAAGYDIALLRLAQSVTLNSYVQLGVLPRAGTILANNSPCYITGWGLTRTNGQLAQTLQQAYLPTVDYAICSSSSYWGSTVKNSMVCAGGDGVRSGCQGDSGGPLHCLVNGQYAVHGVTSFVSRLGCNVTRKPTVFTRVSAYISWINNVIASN
Protocol: as §1
(1) Added a total 190 μL of different concentrations of peptides (ECs) against elastase and reaction buffer (20 mM CaCl₂, 50 mM Tris-HCl buffer (pH 8.0)) into the pre-cold 96 well plate, followed by preheating at 37° C. for 5 min and centrifugated at 500 rpm for 1 min and allowed to stand for 4 minutes. […] Finally, added 2 μL of 100 mM AAApNA, and mixed by centrifugation at 500 rpm for 1 min. The plate was incubated at 37° C. for 60 min, and the absorbance value at 405 nm was measured. […]

T1 sequence (P00760 24-246): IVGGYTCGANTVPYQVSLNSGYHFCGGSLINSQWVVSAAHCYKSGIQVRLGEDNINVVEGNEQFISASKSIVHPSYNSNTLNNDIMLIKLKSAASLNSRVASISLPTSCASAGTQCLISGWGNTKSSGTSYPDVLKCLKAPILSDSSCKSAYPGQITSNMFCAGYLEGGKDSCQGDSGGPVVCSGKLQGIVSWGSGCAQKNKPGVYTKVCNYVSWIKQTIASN

B1: BT9 (peptide)
peptide: CGRATKSIPPICF
modifications: disulfide 1-12 (inferred)
notes: synthetic
Residual trypsin activity (%) (bovine trypsin [1]): -0.4%
Residual trypsin activity (%) (bovine trypsin [2]): -0.4%
Residual trypsin activity (%) (bovine trypsin [3]): 94.3%
Residual trypsin activity (%) (bovine trypsin [4]): 68.1%
Residual trypsin activity (%) (bovine trypsin [5]): 94.3%
Residual trypsin activity (%) (bovine trypsin [6]): 68.1%
Residual trypsin activity (%) (bovine trypsin [7]): 100%
Residual trypsin activity (%) (bovine trypsin [8]): 100%

B2: BT67 (peptide)
peptide: CARATKSIPPICF
modifications: disulfide 1-12 (inferred)
notes: synthetic
Residual trypsin activity (%) (bovine trypsin [2]): 0.1%
Residual trypsin activity (%) (bovine trypsin [9]): 0.1%
Residual trypsin activity (%) (bovine trypsin [10]): 1.5%
Residual trypsin activity (%) (bovine trypsin [5]): 102%
Residual trypsin activity (%) (bovine trypsin [6]): 49.6%
Residual trypsin activity (%) (bovine trypsin [8]): 104%

B3: BT47 (peptide)
peptide: CGRSTKSIPPICF
modifications: disulfide 1-12 (inferred)
notes: synthetic
Residual trypsin activity (%) (bovine trypsin [1]): 0.2%
Residual trypsin activity (%) (bovine trypsin [11]): 0%
Residual trypsin activity (%) (bovine trypsin [12]): 5.6%
Residual trypsin activity (%) (bovine trypsin [13]): 0.1%
Residual trypsin activity (%) (bovine trypsin [3]): 108%
Residual trypsin activity (%) (bovine trypsin [4]): 57.4%
Residual trypsin activity (%) (bovine trypsin [14]): 39%
Residual trypsin activity (%) (bovine trypsin [7]): 105%
Residual trypsin activity (%) (bovine trypsin [15]): 103%

B5: BT54 (peptide)
peptide: CGRQTKSIPPICF
modifications: disulfide 1-12 (inferred)
notes: synthetic
Residual trypsin activity (%) (bovine trypsin [1]): 0.1%
Residual trypsin activity (%) (bovine trypsin [11]): -0.1%
Residual trypsin activity (%) (bovine trypsin [12]): 7.2%
Residual trypsin activity (%) (bovine trypsin [3]): 99.9%
Residual trypsin activity (%) (bovine trypsin [4]): 65.8%
Residual trypsin activity (%) (bovine trypsin [14]): 24.3%
Residual trypsin activity (%) (bovine trypsin [7]): 99.2%
Residual trypsin activity (%) (bovine trypsin [15]): 101%

B6: BT25 (peptide)
peptide: CGTATKSIPPICF
modifications: disulfide 1-12 (inferred)
notes: synthetic
Residual trypsin activity (%) (bovine trypsin [1]): 49.7%
Residual trypsin activity (%) (bovine trypsin [11]): 1%
Residual trypsin activity (%) (bovine trypsin [2]): 49.7%
Residual trypsin activity (%) (bovine trypsin [9]): 1%
Residual trypsin activity (%) (bovine trypsin [12]): 100%
Residual trypsin activity (%) (bovine trypsin [13]): 0.2%
Residual trypsin activity (%) (bovine trypsin [10]): 100%
Residual trypsin activity (%) (bovine trypsin [3]): 99.6%
Residual trypsin activity (%) (bovine trypsin [5]): 99.6%
Residual trypsin activity (%) (bovine trypsin [7]): 101%
Residual trypsin activity (%) (bovine trypsin [8]): 101%

B7: BT26 (peptide)
peptide: CGRAAKSIPPICF
modifications: disulfide 1-12 (inferred)
notes: synthetic
Residual trypsin activity (%) (bovine trypsin [1]): 94.5%
Residual trypsin activity (%) (bovine trypsin [11]): 0.4%
Residual trypsin activity (%) (bovine trypsin [2]): 94.5%
Residual trypsin activity (%) (bovine trypsin [9]): 0.4%
Residual trypsin activity (%) (bovine trypsin [12]): 100%
Residual trypsin activity (%) (bovine trypsin [13]): 0.1%
Residual trypsin activity (%) (bovine trypsin [10]): 100%
Residual trypsin activity (%) (bovine trypsin [3]): 99.5%
Residual trypsin activity (%) (bovine trypsin [5]): 99.5%

B9: EC7 (peptide)
peptide: CGLATLSIPPICQ
modifications: disulfide 1-12 (inferred)
binding result [16]: binds

More lines, now with the values ahead:

Residual trypsin activity (%) (bovine trypsin [2]): 0.1%
Residual trypsin activity (%) (bovine trypsin [9]): 0.1%
Residual trypsin activity (%) (bovine trypsin [10]): 4.8%
Residual trypsin activity (%) (bovine trypsin [5]): 106%
Residual trypsin activity (%) (bovine trypsin [6]): 66.8%
Residual trypsin activity (%) (bovine trypsin [8]): 105%
B4: BT66 (peptide)
peptide: CPRATKSIPPICF
modifications: disulfide 1-12 (inferred)
notes: synthetic

Residual trypsin activity (%) (bovine trypsin [1]): 0.5%
Residual trypsin activity (%) (bovine trypsin [11]): 0.2%
Residual trypsin activity (%) (bovine trypsin [12]): 63%
Residual trypsin activity (%) (bovine trypsin [13]): 0%
Residual trypsin activity (%) (bovine trypsin [3]): 106%
Residual trypsin activity (%) (bovine trypsin [4]): 87.4%
Residual trypsin activity (%) (bovine trypsin [7]): 109%
Residual trypsin activity (%) (bovine trypsin [15]): 104%
B8: BT53 (peptide)
peptide: CGRYTKSIPPICF
modifications: disulfide 1-12 (inferred)
notes: synthetic

binding result [16]: binds
B10: EC2 (peptide)
peptide: LCTLSIPPQCY
modifications: disulfide 2-10 (inferred)
